Data published in patent US20200317768A1 (published 2020).

T1: human FcγRIIaH extracellular domain, C-terminal His-tag (human, UniProt P12318 34-217)
T1 construct: also called human FcγRIIa (type H); FcgRIIaH; not shown: His-tag added to the C-terminus
T1 sequence: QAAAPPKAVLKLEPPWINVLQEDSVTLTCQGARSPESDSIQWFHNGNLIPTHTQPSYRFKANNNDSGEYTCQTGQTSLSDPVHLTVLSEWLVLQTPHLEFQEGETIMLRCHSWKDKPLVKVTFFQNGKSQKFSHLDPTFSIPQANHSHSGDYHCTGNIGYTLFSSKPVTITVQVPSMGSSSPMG

T2: human FcγRIIaR extracellular domain, C-terminal His-tag (human, UniProt P12318 34-217)
T2 construct: also called human FcγRIIa (type R); FcgRIIaR; not shown: His-tag added to the C-terminus
T2 chain: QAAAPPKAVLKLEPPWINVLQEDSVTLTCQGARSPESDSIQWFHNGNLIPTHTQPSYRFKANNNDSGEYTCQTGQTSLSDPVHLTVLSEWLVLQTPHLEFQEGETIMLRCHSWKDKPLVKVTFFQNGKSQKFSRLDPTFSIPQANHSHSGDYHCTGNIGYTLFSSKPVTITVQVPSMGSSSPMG

T3: human FcγRIIb extracellular domain, C-terminal His-tag (human, UniProt P31994 43-217)
T3 construct: also called FcgRIIb; not shown: His-tag added to the C-terminus
T3 sequence: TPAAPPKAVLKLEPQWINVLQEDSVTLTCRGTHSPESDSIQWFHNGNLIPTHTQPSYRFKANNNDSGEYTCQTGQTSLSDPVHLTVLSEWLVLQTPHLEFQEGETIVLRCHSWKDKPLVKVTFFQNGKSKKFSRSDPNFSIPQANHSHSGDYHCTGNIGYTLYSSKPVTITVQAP


Columns and labels:
[1] = biological target: T1, human FcγRIIaH extracellular domain, …; assay: SPR; KD of SG1 divided by KD of variant;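 note: relative to parent M103205H795-SG1 carrying the SG1 human heavy chain constant region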
Experimental: (§1) The kinetic analysis of interactions between these antibodies and FcγR was carried out using BIACORE® T200 or BIACORE® 4000 (GE Healthcare). HBS-EP+ (GE Healthcare) was used as the running buffer, and the measurement temperature was set to 25° C. A chip produced by immobilizing Protein A. Protein A/G or mouse anti-human IgG kappa light chain (BD Biosciences) onto a Series S Sensor Chip CM4 or CM5 (GE Healthcare) by the amine-coupling method was used. […] After the measurement, the antibody captured on the chip was washed off by allowing reaction with 10 mM glycine-HCl, pH1.5 and 25 mM NaOH so that the chip was regenerated and used repeatedly. The sensorgrams obtained as measurement results were analyzed by the 1:1 Langmuir binding model using the BIACORE® Evaluation Software to calculate the binding rate constant ka (L/mol/s) and dissociation rate constant kd (l/s), and the dissociation constant KD (mol/L) was calculated from these values. […] Regarding such interactions, KD values were calculated using the following 1:1 binding model described in BIACORE® T100 Software Handbook BR1006-48 Edition AE.
(§2) Human FcγRIIb-enhanced Fc variants with anti-myostatin variable region were constructed and their affinity for human FcγRs was evaluated. […] In addition, substitutions (Q311R/D413K or […]) were also introduced. The variants were expressed using M103202L1045-SK1 as light chain and their affinity to human FcγRs was analyzed according to the method shown in Example 34.

[2] = biological target: T2, human FcγRIIaR extracellular domain, …; assay: SPR; KD of SG1 divided by KD of variant;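 note: relative to parent M103205H795-SG1 carrying the SG1 human heavy chain constant region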
Experimental: as §1, §2

[3] = biological target: T3, human FcγRIIb extracellular domain, …; assay: SPR; KD of SG1 divided by KD of variant;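 note: relative to parent M103205H795-SG1 carrying the SG1 human heavy chain constant region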
Experimental: as §1, §2

[4] = biological target: T4, human FcγRIIIaV extracellular domain, C-terminal His-tag (human, UniProt P08637 17-208); assay: SPR; KD of SG1 divided by KD of variant;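 note: relative to parent M103205H795-SG1 carrying the SG1 human heavy chain constant region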
T4 construct: also called FcgRIIIaV; not shown: His-tag added to the C-terminus
T4 sequence (P08637 17-208 F176V): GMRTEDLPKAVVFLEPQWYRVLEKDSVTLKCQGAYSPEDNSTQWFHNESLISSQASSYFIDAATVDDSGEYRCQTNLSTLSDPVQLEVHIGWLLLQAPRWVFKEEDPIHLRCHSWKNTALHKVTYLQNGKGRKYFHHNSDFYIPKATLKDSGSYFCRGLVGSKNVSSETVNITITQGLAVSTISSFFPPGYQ
Experimental: as §1, §2

[5] = biological target: T1, human FcγRIIaH extracellular domain, …; assay: SPR (BIACORE), antibody captured, soluble FcgR as analyte, 25C
Experimental: as §1, §2

[6] = biological target: T2, human FcγRIIaR extracellular domain, …; assay: as above
Experimental: as §1, §2

[7] = biological target: T3, human FcγRIIb extracellular domain, …; assay: as above
Experimental: as §1, §2

[8] = biological target: T4, human FcγRIIIaV extracellular domain, …; assay: as above
Experimental: as §1, §2

Row | Binder | KD fold (SG1 = 1) [1] | KD fold (SG1 = 1) [2] | KD fold (SG1 = 1) [3] | KD fold (SG1 = 1) [4] | Kd [5] | Kd [6] | Kd [7] | Kd [8]
1 | MS103240H795-TT29/M103202L1045-SK1 (antibody, human IgG1, kappa, CH = SG1 with L234Y/P238D/T250V/S267A/T307P/Q311R/A330K/D413K (EU numbering)) heavy: QVQLVESGGGLVQPGGSLRLSCAVSGIDLSHDDISWVRQAPGKGLEWVSIISYAGSTYYASWAKGRLTISKDTSKNQVVLTMTNMDPVDTATYYCARGVPAYSHGGDLWGQGTLVTVSSASTKGPSVFPLAPSSKSTSGGTAALGCLVKDYFPEPVTVSWNSGALTSGVHTFPAVLQSSGLYSLSSVVTVPSSSLGTQTYICNVNHKPSNTKVDKKVEPKSCDKTHTCPPCPAPEYLGGDSVFLFPPKPKDVLMISRTPEVTCVVVDVAHEDPEVKFNWYVDGVEVHNAKTKPREEQYNSTYRVVSVLPVLHRDWLNGKEYKCKVSNKALPKPIEKTISKAKGQPREPQVYTLPPSREEMTKNQVSLTCLVKGFYPSDIAVEWESNGQPENNYKTTPPVLDSDGSFFLYSKLTVKKSRWQQGNVFSCSVMHEALHNHYTQKSLSLSP light: DIVMTQSPATLSLSPGERATLSCTTSQSVYHENWLSWFQQKPGQPPKLLIYWASTLAYGVPSRFSGSGSGTDFTLTISSLQPEDAATYYCAGGYGGGRYAFGQGTKVEIKRTVAAPSVFIFPPSDEQLKSGTASVVCLLNNFYPREAKVQWKVDNALQSGNSQESVTEQDSKDSTYSLSSTLTLSKADYEKHKVYACEVTHQGLSSPVTKSFNRGEC | 0.02 fold | 0.15 fold | 7.2 fold | 0.009 fold | 37 µM | 7.5 µM | 0.81 µM | 89 µM
2 | MS103240H795-TT30/M103202L1045-SK1 (antibody, human IgG1, kappa, CH = SG1 with P238D/T250V/V264I/S267A/T307P/Q311R/A330K/P343R (EU numbering)) heavy: QVQLVESGGGLVQPGGSLRLSCAVSGIDLSHDDISWVRQAPGKGLEWVSIISYAGSTYYASWAKGRLTISKDTSKNQVVLTMTNMDPVDTATYYCARGVPAYSHGGDLWGQGTLVTVSSASTKGPSVFPLAPSSKSTSGGTAALGCLVKDYFPEPVTVSWNSGALTSGVHTFPAVLQSSGLYSLSSVVTVPSSSLGTQTYICNVNHKPSNTKVDKKVEPKSCDKTHTCPPCPAPELLGGDSVFLFPPKPKDVLMISRTPEVTCVVIDVAHEDPEVKFNWYVDGVEVHNAKTKPREEQYNSTYRVVSVLPVLHRDWLNGKEYKCKVSNKALPKPIEKTISKAKGQRREPQVYTLPPSREEMTKNQVSLTCLVKGFYPSDIAVEWESNGQPENNYKTTPPVLDSDGSFFLYSKLTVDKSRWQQGNVFSCSVMHEALHNHYTQKSLSLSP light: DIVMTQSPATLSLSPGERATLSCTTSQSVYHENWLSWFQQKPGQPPKLLIYWASTLAYGVPSRFSGSGSGTDFTLTISSLQPEDAATYYCAGGYGGGRYAFGQGTKVEIKRTVAAPSVFIFPPSDEQLKSGTASVVCLLNNFYPREAKVQWKVDNALQSGNSQESVTEQDSKDSTYSLSSTLTLSKADYEKHKVYACEVTHQGLSSPVTKSFNRGEC | 0.005 fold | 0.08 fold | 10.2 fold | 0.012 fold | 150 µM | 14 µM | 0.57 µM | 66 µM
3 | MS103240H795-TT31/M103202L1045-SK1 (antibody, human IgG1, kappa, CH = SG1 with P238D/T250V/V264I/S267A/T307P/Q311R/A330K/D413K (EU numbering)) heavy: QVQLVESGGGLVQPGGSLRLSCAVSGIDLSHDDISWVRQAPGKGLEWVSIISYAGSTYYASWAKGRLTISKDTSKNQVVLTMTNMDPVDTATYYCARGVPAYSHGGDLWGQGTLVTVSSASTKGPSVFPLAPSSKSTSGGTAALGCLVKDYFPEPVTVSWNSGALTSGVHTFPAVLQSSGLYSLSSVVTVPSSSLGTQTYICNVNHKPSNTKVDKKVEPKSCDKTHTCPPCPAPELLGGDSVFLFPPKPKDVLMISRTPEVTCVVIDVAHEDPEVKFNWYVDGVEVHNAKTKPREEQYNSTYRVVSVLPVLHRDWLNGKEYKCKVSNKALPKPIEKTISKAKGQPREPQVYTLPPSREEMTKNQVSLTCLVKGFYPSDIAVEWESNGQPENNYKTTPPVLDSDGSFFLYSKLTVKKSRWQQGNVFSCSVMHEALHNHYTQKSLSLSP light: DIVMTQSPATLSLSPGERATLSCTTSQSVYHENWLSWFQQKPGQPPKLLIYWASTLAYGVPSRFSGSGSGTDFTLTISSLQPEDAATYYCAGGYGGGRYAFGQGTKVEIKRTVAAPSVFIFPPSDEQLKSGTASVVCLLNNFYPREAKVQWKVDNALQSGNSQESVTEQDSKDSTYSLSSTLTLSKADYEKHKVYACEVTHQGLSSPVTKSFNRGEC | 0.007 fold | 0.06 fold | 10.4 fold | 0.003 fold | 110 µM | 19 µM | 0.56 µM | 290 µM
4 | MS103240H795-TT32/M103202L1045-SK1 (antibody, human IgG1, kappa, CH = SG1 with L234Y/P238D/T250V/V264I/T307P/Q311R/A330K/P343R (EU numbering)) heavy: QVQLVESGGGLVQPGGSLRLSCAVSGIDLSHDDISWVRQAPGKGLEWVSIISYAGSTYYASWAKGRLTISKDTSKNQVVLTMTNMDPVDTATYYCARGVPAYSHGGDLWGQGTLVTVSSASTKGPSVFPLAPSSKSTSGGTAALGCLVKDYFPEPVTVSWNSGALTSGVHTFPAVLQSSGLYSLSSVVTVPSSSLGTQTYICNVNHKPSNTKVDKKVEPKSCDKTHTCPPCPAPEYLGGDSVFLFPPKPKDVLMISRTPEVTCVVIDVSHEDPEVKFNWYVDGVEVHNAKTKPREEQYNSTYRVVSVLPVLHRDWLNGKEYKCKVSNKALPKPIEKTISKAKGQRREPQVYTLPPSREEMTKNQVSLTCLVKGFYPSDIAVEWESNGQPENNYKTTPPVLDSDGSFFLYSKLTVDKSRWQQGNVFSCSVMHEALHNHYTQKSLSLSP light: DIVMTQSPATLSLSPGERATLSCTTSQSVYHENWLSWFQQKPGQPPKLLIYWASTLAYGVPSRFSGSGSGTDFTLTISSLQPEDAATYYCAGGYGGGRYAFGQGTKVEIKRTVAAPSVFIFPPSDEQLKSGTASVVCLLNNFYPREAKVQWKVDNALQSGNSQESVTEQDSKDSTYSLSSTLTLSKADYEKHKVYACEVTHQGLSSPVTKSFNRGEC | 0.015 fold | 0.09 fold | 14.5 fold | 0.007 fold | 50 µM | 12 µM | 0.4 µM | 110 µM
5 | MS103240H795-TT33/M103202L1045-SK1 (antibody, human IgG1, kappa, CH = SG1 with L234Y/P238D/T250V/V264I/T307P/Q311R/A330K/D413K (EU numbering)) heavy: QVQLVESGGGLVQPGGSLRLSCAVSGIDLSHDDISWVRQAPGKGLEWVSIISYAGSTYYASWAKGRLTISKDTSKNQVVLTMTNMDPVDTATYYCARGVPAYSHGGDLWGQGTLVTVSSASTKGPSVFPLAPSSKSTSGGTAALGCLVKDYFPEPVTVSWNSGALTSGVHTFPAVLQSSGLYSLSSVVTVPSSSLGTQTYICNVNHKPSNTKVDKKVEPKSCDKTHTCPPCPAPEYLGGDSVFLFPPKPKDVLMISRTPEVTCVVIDVSHEDPEVKFNWYVDGVEVHNAKTKPREEQYNSTYRVVSVLPVLHRDWLNGKEYKCKVSNKALPKPIEKTISKAKGQPREPQVYTLPPSREEMTKNQVSLTCLVKGFYPSDIAVEWESNGQPENNYKTTPPVLDSDGSFFLYSKLTVKKSRWQQGNVFSCSVMHEALHNHYTQKSLSLSP light: DIVMTQSPATLSLSPGERATLSCTTSQSVYHENWLSWFQQKPGQPPKLLIYWASTLAYGVPSRFSGSGSGTDFTLTISSLQPEDAATYYCAGGYGGGRYAFGQGTKVEIKRTVAAPSVFIFPPSDEQLKSGTASVVCLLNNFYPREAKVQWKVDNALQSGNSQESVTEQDSKDSTYSLSSTLTLSKADYEKHKVYACEVTHQGLSSPVTKSFNRGEC | 0.018 fold | 0.09 fold | 16.1 fold | 0.002 fold | 42 µM | 12 µM | 0.36 µM | 440 µM
